Several values for one entry are separate records, joined by “and”; a condition that tells them apart may be missing. Equal values may be shown once.
Legend:
[1] = Solubility of His-tagged phosphite dehydrogenase forcibly expressed in E. coli (supernatant vs sediment, SDS-PAGE); format: physicochemical, Escherichia coli; details: expressed in E. coli Rosetta2 (DE3), disruption buffer 50 mM Tris-HCl pH 7.4, 50 mM NaCl, 0.1% Tween20, centrifuged 15,000 rpm, CBB
Text: By a well-known method, the base sequence of SEQ ID NO: 2 or a phosphite dehydrogenase gene (SEQ ID NO: 4) of P stutzeri WM88 was inserted into a plasmid pET21b (produced by Novagen) (an amino acid sequence of the protein encoded by the base sequence of SEQ ID NO: 4 is shown in SEQ ID NO: 3) to prepare (i) an expression vector of a fusion protein (see “PtxD4506” in FIG. 2) in which the C-terminal of the phosphite dehydrogenase protein of SEQ ID NO: 1 is labeled with a His tag or (ii) an expression vector of a fusion protein (see “PtxDPst” in FIG. 2) in which the C-terminal of the phosphite dehydrogenase protein of P stutzeri WM88 is labeled with a His tag.
A competent cell Rosetta2 (DE3) (produced by Novagen) was transformed by a well-known method with use of each of the expression vectors.
Transformants thus obtained were inoculated on a 200 mL LB culture medium (containing 10 g of polypeptone, 5 g of yeast extract, and 5 g of NaCl per liter of the culture-medium), and were cultured at 37° C. until OD600 reached 0.5. Subsequently, IPTG (isopropyl thiogalactoside) was added to the culture so as to have a concentration of 1 mM. Then, the culture was incubated for another 3 more hours at 28° C.
The culture was centrifuged at 6,000 rpm for 15 minutes, and bacteria, which were sediment, were collected. The bacteria were suspended in a buffer for disruption (50 mM Tris-HCl (pH: 7.4), 50 mM NaCl), and a suspension thus obtained was subjected to an ultrasonic treatment, so that the bacteria were disrupted. Subsequently, Tween20 (Registered Trademark) was added to a resultant solution of the disrupted bacteria so as to have a final concentration of 0.1%, and was left still on ice for 15 minutes. Note that the buffer for disruption containing the disrupted bacteria is indicated as “T” in FIG. 2.
The buffer for disruption containing the disrupted bacteria was centrifuged at 15,000 rpm and 4° C. for 15 minutes. After the centrifugation, a resultant product was divided into a supernatant and sediment. In FIG. 2, the supernatant is indicated as “S” and the sediment is indicated as “I.”
The buffer for disruption (T) containing the disrupted bacteria, the supernatant (S), and the sediment (I) described above were separated by SDS-PAGE. Subsequently, an acrylamide gel was dyed with CBB stain one (produced by Nacalai), and an amount of the phosphite dehydrogenase protein was measured.

[2] = Activity of phosphite dehydrogenase protein in the presence of inhibitor (relative OD340); format: biochemical; details: no inhibitor = 100.0; for relative value of OD340, average: NaCl, average of experiments
Description: PtxD4506 and PtxDPst, which were purified with use of the HisTrap column in [3. […] An experimental method was based on a method described in the literature “Costas et al., Journal of Biological Chemistry, 2001, 276, 17429-17436.” The experimental method is briefly described below.
A reaction solution was prepared by mixing 100 μL of 100 mM MOPS-KOH (pH 7.25), 50 μL of 10 mM NAD, 5 μL of 5 mM phosphite, 50 μL of 40 mM inhibitor of various kinds (arsenite, nitrate, sulfate, or NaCl), 294 μL of H2O, and 1 μL of 0.5 mg/mL protein-containing solution (a PtxD4506-containing solution, a PtxDPst-containing solution, or a liquid which contained no protein (negative control)).
The reaction solution was reacted for 60 minutes. Note that the reaction solution containing the PtxD4506-containing solution was reacted at 45° C., and the reaction solution containing the PtxDPst-containing solution was reacted at 30° C. Subsequently, OD340 was measured. A relative value of OD340 of each sample was calculated relative to 100 of a value of OD340 of the reaction solution containing the liquid which contained no protein (negative control). Note that each experiment was conducted 4 times or more, and an average of relative values obtained in the 4 or 5 experiments was also calculated.

[3] = Heat resistance of phosphite dehydrogenase protein (specific activity vs temperature, FIG. 3); format: biochemical; details: 0.2 mg/mL in 50 mM MOPS pH 7.4, kept at 10° C. to 60° C.; 1 mM NAD+, 1 mM phosphorous acid
Description: After the ultracentrifugation, a supernatant was collected to be used as a crude extract for measuring phosphite dehydrogenase activity. A total of 1000 μL of a reaction solution was prepared which contained the crude extract (protein amount: 10 μg), NAD^+ (1 mM), phosphorous acid (1 mM), and a MOPS-KOH buffer (20 mM, pH 7.4). A temperature of the reaction solution was elevated to 45° C., so that a reaction was started. A sample was collected, each in an amount of 100 μL, at predetermined time intervals for a predetermined period of time (0 to 180 minutes), and absorbance (340 nm) of each sample was measured. Phosphite dehydrogenase activity was evaluated in terms of an amount of NADH generated by 1 mg of protein per unit time.
PtxD4506 and PtxDPst, which were purified with use of the HisTrap column in [3. Expression of Phosphite Dehydrogenase Protein Using Escherichia Coli] were examined in terms of heat resistance. The following description discusses how measurement of heat resistance was carried out.
Each of the purified PtxD4506 and PtxDPst was added to 50 mM of a MOPS buffer (pH 7.4) so as to have a final concentration of 0.2 mg/mL. 100 μL of an enzyme solution thus obtained was supplied to a 1.5-mL tube, and 100 μL of mineral oil was added to the enzyme solution in order to prevent evaporation. A temperature of the tube was maintained at 10° C. to 60° C. for 12 hours. […]

[4] = Reaction kinetic analysis of phosphite dehydrogenase protein (NADH production rate vs NAD+ concentration); format: biochemical; details: ratio PtxD4506 / PtxDPst
Description: PtxD4506 and PtxDPst, which were purified with use of the HisTrap column in [3. Expression of Phosphite Dehydrogenase Protein By Using Escherichia Coli], were compared with each other in terms of reaction rate. The following description discusses how measurement of reaction rates was carried out.
Reaction rates of respective PtxD4506 and PtxDPst were calculated on the basis of (Reaction formula 1) shown in the section [Background Art].
Specifically, in the reaction system of (Reaction formula 1), a production rate of NADH was measured with use of 7.5 μg of each of the fusion proteins PtxD4506 and PtxDPst while a concentration of a substrate (NAD^+) was gradually changed from 0.5 μM to 200 μM. […]
Based on the measured concentration of the substrate (NAD^+) and the measured production rate of NADH, values of Km (μM), Vmax (μmol/min/m), Kcat (min^−1), and Kcat/km were calculated in accordance with a well-known enzyme kinetic method (see, for example, “Fundamental Experiment Method of Proteins and Enzymes (2nd revised edition), Nankodo Co., Ltd.”). Note that the experiment was carried out three times, and values of Km, Vmax, Kcat, and Kcat/km were calculated in each of the experiments. Then, for each of Km, Vmax, Kcat, and Kcat/km, an average of the values calculated in the three experiments was obtained and defined as the value of each of Km, Vmax, Kcat, and Kcat/km. […]

Row | Molecule | fusion protein present in the sediment (I) [1] | fusion protein present in the supernatant (S) [1] | relative value of OD340, average [2] | temperature at which specific activity is the highest (optimum temperature) [3] | relative value of OD340 ([2]; NaCl (50 μL of 40 mM in reaction solution), single experiments 1-5, 60 min, PtxD4506 at 45° C., PtxDPst at 30° C.) | Km relative to that of PtxDPst [4]
1 | PtxDPst: fusion protein: phosphite dehydrogenase protein of P stutzeri WM88 (SEQ ID NO: 3), C-terminal labeled with a His tag (protein, listed as Pseudomonas stutzeri, C-terminal His tag) MLPKLVITHRVHDEILQLLAPHCELMTNQTDSTLTREEILRRCRDAQAMMAFMPDRVDADFLQACPELRVVGCALKGFDNFDVDACTARGVWLTFVPDLLTVPTAELAIGLAVGLGRHLRAADAFVRSGEFQGWQPQFYGTGLDNATVGILGMGAIGLAMADRLQGWGATLQYHEAKALDTQTEQRLGLRQVACSELFASSDFILLALPLNADTQHLVNAELLALVRPGALLVNPCRGSVVDEAAVLAALERGQLGGYAADVFEMEDWARADRPRLIDPALLAHPNTLFTPHIGSAVRAVRLEIERCAAQNIIQVLAGARPINAANRLPKAEPAAC | approximately 81.6% | approximately 18.4% | 89.3 | about 35 °C | – | –
2 | PtxD4506: fusion protein: phosphite dehydrogenase protein of SEQ ID NO: 1 (from Ralstonia sp. strain 4506), C-terminal labeled with a His tag (protein, C-terminal His tag; Ralstonia sp. 4506) MKPKVVLTHWVHPEIIELLSASADVIPNTTRETLPRSEVIARAKDADALMAFMPDSIDSAFLEECPKLRVIGAALKGYDNFDVNACTRHGVWLTIVPDLLTIPTAELTIGLLLGLTRHMLEGDRQIRSGHFQGWRPTLYGSGLTGKTLGIIGMGAVGRAIAQRLAGFEMNLLYCDPIPLNAEQEKAWHVQRVTLDELLEKCDYVVPMVPMAAETLHLIDATALAKMKTGSYLINACRGSVVDENAVIAALASGKLAGYAADVFEMEEWIRADRPQAIPKALLDNTAQTFFTPHLGSAVKEVRLEIERQAAMNIIQALAGEKPMGAINQPYPGVKAA | approximately 8.6% | approximately 91.4% | 93.6 | about 50 °C | 92.6 and 96.9 and 95.7 and 95.9 and 87.1 | about a third

Reference: patent publication US9273290B2, “Method for producing phosphite dehydrogenase protein and use thereof” (priority 2011, dated 2016)
